Tests used:
[1] = biological target: FcRn (UniProt P55899); assay: BLI Octet, biotinylated FcRn on streptavidin sensor, pH 5.0, global 1:1 fit
[2] = biological target: BSA (bovine) (UniProt P02769); assay: polyspecificity ELISA, BSA-blocked control wells, 100 nM antibody
[3] = biological target: human insulin (human) (UniProt P01308); assay: polyspecificity ELISA, coated insulin, 100 nM antibody
human insulin (human), sequence (P01308 25-54 limits assumed, chain 1 of 2): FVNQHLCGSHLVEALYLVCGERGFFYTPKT
human insulin (human), sequence (P01308 90-110 limits assumed, chain 2 of 2): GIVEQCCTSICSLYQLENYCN

BSA (bovine), sequence (P02769 25-607 limits assumed): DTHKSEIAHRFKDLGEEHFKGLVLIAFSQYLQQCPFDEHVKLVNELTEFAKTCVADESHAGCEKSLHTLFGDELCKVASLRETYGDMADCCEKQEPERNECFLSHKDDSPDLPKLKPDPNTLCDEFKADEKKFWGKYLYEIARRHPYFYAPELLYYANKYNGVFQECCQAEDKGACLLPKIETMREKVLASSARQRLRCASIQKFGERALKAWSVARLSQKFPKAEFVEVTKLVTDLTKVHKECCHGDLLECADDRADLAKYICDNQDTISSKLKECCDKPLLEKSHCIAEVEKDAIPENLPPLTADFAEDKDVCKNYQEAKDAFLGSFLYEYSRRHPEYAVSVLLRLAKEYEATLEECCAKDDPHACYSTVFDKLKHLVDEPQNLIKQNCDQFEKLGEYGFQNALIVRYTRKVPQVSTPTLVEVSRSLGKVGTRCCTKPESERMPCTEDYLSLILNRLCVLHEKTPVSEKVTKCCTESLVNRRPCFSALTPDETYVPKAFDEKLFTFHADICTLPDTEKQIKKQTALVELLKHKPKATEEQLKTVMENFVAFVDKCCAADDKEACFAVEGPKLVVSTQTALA

Kd [1] | A450 nm [2] | A450 nm [3] | Norm (signal over AdalimumAb) [3] | Substance
0.13 nM |  |  |  | wild type human IgG1 antibody
 | 0.1 | 0.16 | 2.29 fold | Ustekinumab (antibody)

From patent publication US20250243281A1
